Columns and labels:
Ren-2 rats = experiment: Hemodynamics, hypertrophy and fibrosis in Ren-2 transgenic rats with and without ARB; type: in vivo, rat; settings: 0.05 mg/kg/day candesartan from 7-13 weeks of age
Method: Homozygous Ren-2 rats were obtained from the Max-Delbrück-Zentrum für Molekulare Medizin, Berlin, Germany. 30 male Ren-2 rats on a Sprague Dawley (SD) background and 9 age-matched SD rats as controls were studied. Of 30 Ren-2 rats, 8 were sacrificed at 10-weeks of age and 8 were treated with 0.05 mg/kg/day of candesartan, an angiotensin II receptor type I blocker (ARB), from 7-13 weeks of age. Of the remaining 14 untreated Ren-2 rats, 6 were sacrificed at 13 weeks upon the development of clinical signs of heart failure and designated as HF-S rats. The remaining 8 Ren-2 rats were closely monitored and were sacrificed at 17 weeks when clinical signs of failure had not yet appeared. These rats were designated as HF-R rats. Hemodynamic parameters were determined before sacrifice and heart, lung and body weight were measured after the sacrifice. The procedure for care and treatment of animals was approved by the institutional animal care committee. Homozygous Ren-2 rats were obtained from the Max-Delbrück-Zentrum für Molekulare Medizin, Berlin, Germany. We studied 16 male Ren-2 rats and 8 age-matched controls from the non-transgenic background, Sprague Dawley (SD) rats. […] The remaining 4 Ren-2 rats were monitored and were sacrificed at 17 weeks when signs of clinical failure had not appeared. […] Heart, lung and body weight were measured after the sacrifice. […]

Rat cardiac fibroblasts = experiment: Cardiac fibroblast proliferation, methyl-[3H]thymidine incorporation; type: cell-based; settings: 24 hours, control 145±4.8, p<0.01
Method: (§1) Rat cardiac fibroblasts were isolated from 2-day-old neonatal Sprague-Dawley rats, as described previously (Pokharel et al., Hypertension, 40: 155-161, 2002). Cells were cultured in Dulbecco's modification of eagle's medium (DMEM) supplemented with 10% foetal bovine serum (FBS), along with 1% L-glutamate, 50 U/mL penicillin, and 0.1 g/L streptomycin, and were incubated at 37° C. in a humidified 5% CO2 atmosphere. Twenty-four hours after seeding, cells were made quiescent by incubation with media containing 0.5% FBS for 24 hours. Cells were then treated with murine recombinant galectin-3 (control, 10 μg/ml and 30 μg/ml) for 24 hours. The number of dividing cells was determined by radio-labelled methyl-[^3H] thymidine incorporation (0.5 μCi per well) assay. Radioactivity was measured in the mixture of fibroblasts and scintillation liquid using LKB-Wallace beta counter (FSA Laboratory Supplies, Loughborough, UK).

cardiac fibroblasts = experiment: Secreted collagen, [3H]proline incorporation assay; type: cell-based, rat
Method: as §1
Secreted collagen was measured using a [^3H]proline incorporation assay. Briefly, cardiac fibroblasts were seeded in 6-well plates at 90-100% confluency. During the final 24 hours of incubation, 15 μCi/ml of L-[^3H]proline was added. Incorporated [^3H] proline from the condition medium was precipitated with 10% trichloroacetic acid (TCA) and counted with the scintillation counter. Statistical Analyses

Molecule | dP/dtmax (Ren-2 rats; evaluated at 13 weeks) [mmHg/s] | LV weight/body weight % (Ren-2 rats; evaluated in sacrificed animals at 13 weeks) [%] | cardiac fibroblast proliferation (thymidine incorporation) (Rat cardiac fibroblasts; galectin-3 at 10 μg/ml) [cpm] | cardiac fibroblast proliferation (thymidine incorporation) (Rat cardiac fibroblasts; galectin-3 at 30 μg/ml) [cpm] | proline incorporation (collagen production) (cardiac fibroblasts; galectin-3 at 10 μg/ml, not significant, p=0.13) [cpm] | increase in proline incorporation (cardiac fibroblasts; galectin-3 at 30 μg/ml vs control) | proline incorporation (collagen production) (cardiac fibroblasts; galectin-3 at 30 μg/ml, control 707±52.8 cpm, p<0.05) [cpm]
CCOc1nc2cccc(C(=O)O)c2n1Cc1ccc(-c2ccccc2-c2nnn[nH]2)cc1 [candesartan] | 8400±202 | 2.52±0.36 |  |  |  |  | 
galectin-3: murine recombinant galectin-3 added exogenously to rat cardiac fibroblasts (protein, UniProt P16110 2-264, looked up) Galectin-3: ADSFSLNDALAGSGNPNPQGYPGAWGNQPGAGGYPGAAYPGAYPGQAPPGAYPGQAPPGAYPGQAPPSAYPGPTAPGAYPGPTAPGAYPGQPAPGAFPGQPGAPGAYPQCSGGYPAAGPYGVPAGPLTVPYDLPLPGGVMPRMLITIMGTVKPNANRIVLDFRRGNDVAFHFNPRFNENNRRVIVCNTKQDNNWGKEERQSAFPFESGKPFKIQVLVEADHFKVAVNDAHLLQYNHRMKNLREISQLGISGDITLTSANHAMI |  |  | 309±4.8 | 347±17.5 | 992±72 | approximately 66% | 1066±56
